Experimental findings from article PMC5092059 are described below.

One test has as its target 3H-gabapentin. As to the kind of experiment: 3H-gabapentin radioligand saturation binding. To be noted: DRM fractions from transfected tsA-201 cells; n = 4.
Test [1] deals with GFP-CaV2.2 (rabbit CaV2.2 with an N-terminal GFP) (rabbit) (UniProt Q05152).
UniProt Q05152, sequence (Q05152 whole entry): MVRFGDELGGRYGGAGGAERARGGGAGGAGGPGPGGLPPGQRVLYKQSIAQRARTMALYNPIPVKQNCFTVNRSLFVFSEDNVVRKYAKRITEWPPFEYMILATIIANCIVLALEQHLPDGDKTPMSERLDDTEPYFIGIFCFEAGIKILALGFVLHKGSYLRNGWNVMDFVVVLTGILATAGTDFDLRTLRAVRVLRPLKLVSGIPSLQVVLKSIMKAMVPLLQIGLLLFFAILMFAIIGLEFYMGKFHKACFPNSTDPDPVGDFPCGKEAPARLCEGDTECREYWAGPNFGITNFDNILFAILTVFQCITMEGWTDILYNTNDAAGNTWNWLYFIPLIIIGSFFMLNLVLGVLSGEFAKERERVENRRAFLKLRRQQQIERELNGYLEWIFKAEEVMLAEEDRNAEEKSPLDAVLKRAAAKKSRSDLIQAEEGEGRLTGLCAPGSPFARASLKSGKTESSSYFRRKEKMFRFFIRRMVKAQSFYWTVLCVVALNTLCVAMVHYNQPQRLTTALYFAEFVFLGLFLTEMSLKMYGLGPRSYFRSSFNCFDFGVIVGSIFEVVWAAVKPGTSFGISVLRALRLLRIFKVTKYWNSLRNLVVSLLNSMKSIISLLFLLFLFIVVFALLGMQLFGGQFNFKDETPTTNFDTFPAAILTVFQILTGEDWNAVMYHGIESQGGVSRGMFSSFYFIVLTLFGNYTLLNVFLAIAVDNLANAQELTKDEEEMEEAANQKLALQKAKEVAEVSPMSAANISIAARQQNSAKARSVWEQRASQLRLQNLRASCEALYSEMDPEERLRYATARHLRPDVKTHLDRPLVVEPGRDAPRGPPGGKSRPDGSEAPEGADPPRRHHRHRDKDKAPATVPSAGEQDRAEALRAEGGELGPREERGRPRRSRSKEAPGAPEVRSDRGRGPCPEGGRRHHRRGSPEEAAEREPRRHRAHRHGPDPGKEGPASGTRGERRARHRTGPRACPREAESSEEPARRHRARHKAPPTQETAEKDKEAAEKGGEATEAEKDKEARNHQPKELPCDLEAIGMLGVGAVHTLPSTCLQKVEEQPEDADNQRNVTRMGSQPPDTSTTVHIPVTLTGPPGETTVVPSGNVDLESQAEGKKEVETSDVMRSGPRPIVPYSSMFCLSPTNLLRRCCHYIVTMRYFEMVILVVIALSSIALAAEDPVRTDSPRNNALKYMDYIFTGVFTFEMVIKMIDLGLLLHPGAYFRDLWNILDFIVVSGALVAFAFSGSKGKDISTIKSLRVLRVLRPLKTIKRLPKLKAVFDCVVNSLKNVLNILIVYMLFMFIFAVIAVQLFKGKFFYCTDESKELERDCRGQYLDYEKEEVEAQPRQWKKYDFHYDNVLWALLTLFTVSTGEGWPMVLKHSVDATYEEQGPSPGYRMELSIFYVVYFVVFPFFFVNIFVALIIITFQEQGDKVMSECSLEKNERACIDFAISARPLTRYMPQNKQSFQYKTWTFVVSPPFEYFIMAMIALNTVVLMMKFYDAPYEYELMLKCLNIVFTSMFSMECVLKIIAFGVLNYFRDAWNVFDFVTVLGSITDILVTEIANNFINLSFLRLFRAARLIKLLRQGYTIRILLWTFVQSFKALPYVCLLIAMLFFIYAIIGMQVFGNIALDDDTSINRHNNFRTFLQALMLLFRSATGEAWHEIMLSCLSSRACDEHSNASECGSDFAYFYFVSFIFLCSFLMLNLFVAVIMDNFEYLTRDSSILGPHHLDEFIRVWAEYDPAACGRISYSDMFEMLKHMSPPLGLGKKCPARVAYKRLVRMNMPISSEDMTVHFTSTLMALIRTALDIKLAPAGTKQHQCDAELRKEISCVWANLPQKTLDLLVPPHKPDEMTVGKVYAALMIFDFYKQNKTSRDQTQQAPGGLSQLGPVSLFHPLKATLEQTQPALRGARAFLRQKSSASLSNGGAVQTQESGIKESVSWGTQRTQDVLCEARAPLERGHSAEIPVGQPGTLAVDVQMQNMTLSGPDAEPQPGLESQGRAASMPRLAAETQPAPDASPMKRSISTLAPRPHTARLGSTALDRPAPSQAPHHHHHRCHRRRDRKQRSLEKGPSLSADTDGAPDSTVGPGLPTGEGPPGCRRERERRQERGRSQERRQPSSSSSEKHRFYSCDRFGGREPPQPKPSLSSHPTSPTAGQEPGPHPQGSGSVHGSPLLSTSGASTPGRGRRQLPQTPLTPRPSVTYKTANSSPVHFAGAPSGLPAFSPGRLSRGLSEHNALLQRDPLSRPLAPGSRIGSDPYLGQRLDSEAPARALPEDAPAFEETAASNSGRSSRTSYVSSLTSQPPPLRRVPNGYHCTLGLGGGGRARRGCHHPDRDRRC

A word on the Kd: it is the constant that tells how readily two partners part at equilibrium. With “wild type α2δ-1 (rat) (from UniProt P54290) LEAVEM replaced by VVVVVV (hexavaline, V6)”, in the test with 3H-gabapentin, the Kd turned out to be 68.3 nM.

“α2(3C)δ-1 (rat α2δ-1 with the endogenous cleavage motif replaced by a Human Rhinovirus 3C-protease site) (natural protein)” displayed a decrease in α2δ-1 immunostaining in hippocampal neurites after co-transfection with CaV2.2-HA/β1b, α2(3C)δ-1 relative to WT α2δ-1 in test [1] of 37%.
